Laboratory results published in article PMC10761072, “Post-transcriptional capping generates coenzyme A-linked RNA” (RNA Biology, 2023).

Substrate: CC(C)(COP(=O)(O)O)[C@@H](O)C(=O)NCCC(=O)NCCS
Assay: purified protein
Assay type: biochemical, Escherichia coli
Conditions: 10 µM pppAGGAA RNA as acceptor, 500 nM PPAT, 5 mM MgCl2, pH 7.5, 37°C, pPant 10-200 µM

B1: phosphopantetheine adenylyltransferase (PPAT, CoaD) (Escherichia coli K-12) (protein)
chain: MQKRAIYPGTFDPITNGHIDIVTRATQMFDHVILAIAASPSKKPMFTLEERVALAQQATAHLGNVEVVGFSDLMANFARNQHATVLIRGLRAVADFEYEMQLAHMNRHLMPELESVFLMPSKEWSFISSSLVKEVARHQGDVTHFLPENVHQALMAKLA
notes: recombinant full-length enzyme expressed from coaD plasmid and purified; hexamer
Protein B1 has a Km of 14 µM.
